The target of this experiment is SARS-CoV-2 spike (S) protein, unlabelled (ACROBiosystems) (SARS-CoV-2) (UniProt P0DTC2). Kind of experiment: SPR. A general note: Surface plasmon resonance follows binding to a sensor surface in real time, without labels.

The record followed here is paper PMC9710872.

With “recombinant NRP1 (ACROBiosystems), SPR analyte (from UniProt O14786) (natural protein)”, the dissociation constant (Kd) worked out at 89.4 nM. This counts as double-digit nanomolar.

The term Kd denotes the constant that tells how readily two partners part at equilibrium. A lower Kd goes with tighter binding.
